# Measured values published in paper PMC11739670 (2024).
# B1: soluble human CD8αβ-Fc heterodimer (Fc fusion)
# chain 1: not shown
# chain 2: LQQTPAYIKVQTNKMVMLSCEAKISLSNMRIYWLRQRQAPSSDSHHEFLALWDSAKGTIHGEEVEQEKIAVFRDASRFILNLTSVKPEDSGIYFCMIVGSPELTFGKGTQLSVVDFLPTTAQPTKKSTLKKRVCRLPRPETQKGPLCSP
# How the values were obtained:
# [1] = biological target: HLA-A*01:01 peptide-MHC class I (biotinylated pMHCI) (human | , biotin on the Avi-tag (BirA ligase)); test: SPR; average over HLA-A1 peptides, 25°C
# [2] = biological target: HLA-A*03:01 peptide-MHC class I (biotinylated pMHCI) (human | , biotin on the Avi-tag (BirA ligase)); test: SPR; average over HLA-A3 peptides, 25°C
# [3] = biological target: HLA-A*24:02 peptide-MHC class I (biotinylated pMHCI) (human | , biotin on the Avi-tag (BirA ligase)); test: SPR; average over HLA-A24 peptides, 25°C
binder,measurement,setting,value
B1,Kd,[1],120 µM
same,Kd,[2],133 µM
same,Kd,[3],214 µM
